Experiments:
[1] = biological target: T1, wild type CAD (CAD-WT) (1-345), caspase-activated deoxyribonuclease, 35S-labelled (mouse, UniProt O54788 1-344, 35S label); assay: GST pull-down on glutathione-agarose beads, labelled CAD, SDS-PAGE
T1 construct: range 1-345; also called 35S-labeled CAD
T1 sequence (looked up): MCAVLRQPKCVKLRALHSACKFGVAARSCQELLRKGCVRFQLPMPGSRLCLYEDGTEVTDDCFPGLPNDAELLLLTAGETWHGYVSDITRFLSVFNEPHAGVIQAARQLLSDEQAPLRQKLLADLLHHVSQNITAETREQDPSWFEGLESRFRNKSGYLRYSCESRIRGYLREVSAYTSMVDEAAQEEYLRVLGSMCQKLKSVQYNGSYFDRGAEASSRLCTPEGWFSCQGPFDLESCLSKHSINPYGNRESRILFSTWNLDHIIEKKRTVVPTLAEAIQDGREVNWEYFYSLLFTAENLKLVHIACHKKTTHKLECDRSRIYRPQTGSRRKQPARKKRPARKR
Procedure: In detail, wild type CIA (CIA-WT) and its deletion mutants, CIA-ΔN, CIA-ΔC and CIA-CEN, all of them prepared in Example 4, were immobilized onto glutathione-agarose beads and then applied to in vitro translated [^35S] methionine-labeled CAD. Meanwhile, wild type CAD (CAD-WT) (1–345) and its deletion mutants, CAD-ΔN deficient in a […] region (Δ1–83), CAD-NT containing N-terminal half only (Δ162–345), CAD-ΔC deficient in a C-terminal region (Δ290–345), were prepared by PCR and cloned to pLexA (Clonetech). After being isolated and purified from E. coli transformants harboring the expression vectors, the recombinant proteins CAD-WT, CAD-ΔN, CAD-NT and CAD-ΔC, were labeled with ^35S radioactive isotope, and then applied to the glutathione-agarose beads onto which GST-CIA was immobilized. The proteins bounded to the glutathione-agarose beads were eluted, and separated on a gel by SDS-PAGE.

[2] = biological target: T2, ASK1 wild-type, full length (apoptosis signal-regulating kinase 1), in vitro translated and … (UniProt Q99683 1-1374, 35S-methionine label); assay: GST pull-down on glutathione-agarose beads, 35S-labelled ASK1, SDS-PAGE
T2 construct: range 1-1375; also called full length ASK1; 35S-labeled ASK1
T2 sequence (looked up): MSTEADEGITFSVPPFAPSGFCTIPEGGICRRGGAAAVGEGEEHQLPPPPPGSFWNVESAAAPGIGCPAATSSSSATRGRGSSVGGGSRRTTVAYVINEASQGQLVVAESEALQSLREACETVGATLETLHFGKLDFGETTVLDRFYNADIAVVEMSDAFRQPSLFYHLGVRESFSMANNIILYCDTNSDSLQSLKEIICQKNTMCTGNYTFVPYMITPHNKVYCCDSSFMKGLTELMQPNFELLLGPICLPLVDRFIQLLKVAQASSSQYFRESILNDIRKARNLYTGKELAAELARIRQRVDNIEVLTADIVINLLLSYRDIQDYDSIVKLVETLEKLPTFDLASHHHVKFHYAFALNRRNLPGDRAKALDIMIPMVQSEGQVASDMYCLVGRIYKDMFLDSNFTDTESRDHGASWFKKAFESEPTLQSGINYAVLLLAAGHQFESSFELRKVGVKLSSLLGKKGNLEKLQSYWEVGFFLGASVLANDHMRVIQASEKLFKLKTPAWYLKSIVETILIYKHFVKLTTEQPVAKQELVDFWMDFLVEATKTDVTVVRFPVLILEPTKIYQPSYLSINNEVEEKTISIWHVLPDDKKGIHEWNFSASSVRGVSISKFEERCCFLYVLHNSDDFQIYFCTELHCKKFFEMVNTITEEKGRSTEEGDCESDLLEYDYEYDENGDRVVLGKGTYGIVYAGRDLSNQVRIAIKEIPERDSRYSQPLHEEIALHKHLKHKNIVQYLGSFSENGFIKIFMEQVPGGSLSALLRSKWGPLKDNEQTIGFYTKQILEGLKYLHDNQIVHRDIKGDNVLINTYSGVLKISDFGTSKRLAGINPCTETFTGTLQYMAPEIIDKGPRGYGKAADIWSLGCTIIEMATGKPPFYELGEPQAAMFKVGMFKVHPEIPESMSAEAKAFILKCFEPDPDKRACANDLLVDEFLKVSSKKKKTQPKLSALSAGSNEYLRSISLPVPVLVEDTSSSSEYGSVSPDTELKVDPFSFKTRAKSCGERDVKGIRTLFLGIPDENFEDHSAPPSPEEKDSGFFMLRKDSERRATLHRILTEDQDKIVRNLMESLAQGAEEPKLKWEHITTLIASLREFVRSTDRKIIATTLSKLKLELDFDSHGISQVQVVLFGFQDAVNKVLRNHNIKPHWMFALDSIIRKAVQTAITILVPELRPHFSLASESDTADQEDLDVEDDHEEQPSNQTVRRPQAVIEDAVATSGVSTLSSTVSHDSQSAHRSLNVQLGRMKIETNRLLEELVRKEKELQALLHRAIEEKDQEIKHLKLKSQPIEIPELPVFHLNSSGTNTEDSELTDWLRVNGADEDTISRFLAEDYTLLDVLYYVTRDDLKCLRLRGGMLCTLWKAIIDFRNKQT
Procedure: After being immobilized onto glutathione-agarose beads, GST-CIA-WT and its deletion recombinant peptides were reacted with the […] [^35S] methionine-labeled ASK1 or its mutant peptides at 4° C. for 3 hours in a buffer (50 mM Tris, pH 7.5, 150 mM NaCl, 2 mM EDTA, 1 mM dithiothreitol, 0.1% NP-40 and 5 mg/ml BSA). After completion of the reaction, the glutathione-agarose beads were washed three times with a buffer (50 mM HEPES, pH 7.5, 150 mM NaCl, 1 mM EDTA, 1 mM dithiothreitol, 0.1% Tween 20). Next, ^35S-labeled peptides were eluted from the glutathione-agarose beads and analyzed by SDS-PAGE.

B1: GST-CIA-CEN (CIA containing only amino acids 79 to 174) (other)
chain: AAFRQVQGSEISSIDEFCRKFRLDCPLAMERIKEDRPITIKDDKGNLNRCIADVVSLFITVMDKLRLEIRAMDEIQPDLRELMETMHRMSHLPPDF
notes: also called CIA mutant peptide deficient in both terminal regions; not shown: N-terminal GST of pGEX-4T-1 and its linker
B1: no binding [1]; no binding [2].

B2: GST-CIA-ΔN (CIA deficient in N-terminal amino acids 1 to 78) (other)
chain: AAFRQVQGSEISSIDEFCRKFRLDCPLAMERIKEDRPITIKDDKGNLNRCIADVVSLFITVMDKLRLEIRAMDEIQPDLRELMETMHRMSHLPPDFEGRQTVSQWLQTLSGMSASDELDDSQVRQMLFDLESAYNAFNRFLHA
notes: Range follows from 'deficient in N-terminal amino acids 1 to 78' of the 221-residue protein; also called CIA-AN; N-terminal region-deleted CIA peptide; not shown: N-terminal GST of pGEX-4T-1 and its linker
B2: no binding [1].

Reference: US6987089 (dated 2006)
